Target: CLASPIN (UniProt Q9HAW4)
Assay: anti-myc co-immunoprecipitation
Conditions: reference: wild-type RAD9-mH; sites T313

binding against the reference: stronger
Substance: RAD9 (from UniProt Q99638) RAD9-T313A-mH
